Experimental findings from publication PMC7037036, “C-Terminal Domain of the Human Zinc Transporter hZnT8 Is Structurally Indistinguishable from Its Disease Risk Variant (R325W)” (International Journal of Molecular Sciences, 2020) are described below.

Positions count from the first letter of the chain named. Names and notes keep the numbering of the source.

The data set concerns the molecule itself. As to the kind of experiment: SEC; Superdex 75, protein 10 mg/mL, 20 mM Tris pH 7.5, 150 mM NaCl, native conditions; calibrated with standard proteins; for the WT CTD the profile was similar with 3 mM beta-mercaptoethanol and the tetramer was kept in 8 M urea (some aggregates).

B1: C-terminal domain (CTD) of the human zinc transporter 8 (hZnT8), wild type (domain or fragment, UniProt Q8IWU4 281-369, looked up)
chain: SLNYSGVKELILAVDGVLSVHSLHIWSLTMNQVILSAHVATAASRDSQVVRREIAKALSKSFTMHSLTIQMESPVDQDPDCLFCEDPCD
notes: human zinc transporter 8 (hZnT8, SLC30A8), C-terminal domain, Ser281-Asp369; Expressed as His-MBP-TEV-CTD from a pET28a-based vector; N-terminal tags removed with TEV protease; Measured mass 9.828 kDa; also called WT CTD; hZnT8 CTD; source: E. coli BL21 (DE3), purified (Ni-NTA, TEV cleavage, Hi-Trap Q anion exchange, repeated Ni-NTA, amylose resin); not shown: His tag, N-terminal, cleaved; MBP, …
Regarding B1, the stoichiometry N – broadly, the number of molecules, sites or subunits per partner or assembly – turned out to be 4.

B2: C-terminal domain (CTD) of the human zinc transporter 8 (hZnT8), disease risk variant R325W (domain or fragment, UniProt Q8IWU4 281-369, looked up)
chain: B1 chain with R45W
notes: human zinc transporter 8 (hZnT8, SLC30A8), C-terminal domain, Ser281-Asp369, natural variant R325W (SNP rs13266634); Made from the WT CTD plasmid by QuikChange site-directed mutagenesis; N-terminal tags removed with TEV protease; also called R325W CTD; CTD of the disease risk variant; source: E. coli BL21 (DE3), purified (Ni-NTA, TEV cleavage, Hi-Trap Q anion exchange, repeated Ni-NTA, amylose …)
On to B2, for which the “stoichiometry N” value turned out to be 4.
